{"source": "patent US20120316071A1", "about": "(published 2012)", "binders": {"B1": {"name": "Fab VH1-46_IGHD6-6*01_IGHJ1*01 S102A/S103P/S104F/H111F & L6_IGKJ1*01 (Fab, V domains shown)", "VH": "QVQLVQSGAEVKKPGASVKVSCKASGYTFTSYYMHWVRQAPGQGLEWMGIINPSGGSTSYAQKFQGRVTMTRDTSTSTVYMELSSLRSEDTAVYYCAREEYAPFSAEYFQFWGQGTLVTVSS", "VL": "not shown", "notes": "Fab expressed in E. coli: VH cloned into Plasmid A (CH1, His6 and Flag tags), kappa VL into Plasmid C (kappa CL); also called APFF; H:APFF & L:wt"}, "B2": {"name": "Fab VH1-46_IGHD6-6*01_IGHJ1*01 S102A/S103P/S104F/H111F & L6_IGKJ1*01 S28N/S30D/S31H (Fab, V domains shown)", "VH": "B1 VH", "VL": "EIVLTQSPATLSLSPGERATLSCRASQNVDHYLAWYQQKPGQAPRLLIYDASNRATGIPARFSGSGSGTDFTLTISSLEPEDFAVYYCQQRSNWPPWTFGQGTKVEIKR", "notes": "Parental template of this NNK series; Fab with CH1 (plasmid A, His6 and Flag tags) and kappa CL (plasmid C); also called H:APFF & L:NDH; NDH"}, "B3": {"name": "Fab VH1-46_IGHD6-6*01_IGHJ1*01 S102A/S103P/S104F/H111F (APFF) & L6_IGKJ1*01 N93Q (Fab, V domains shown)", "VH": "B1 VH", "VL": "B2 VL with N28S, D30S, H31S, N93Q", "notes": "Fab with CH1 plus His6/Flag tags and kappa CL from the expression plasmids; also called APFF & N93Q"}, "B4": {"name": "Fab VH1-46_IGHD6-6*01_IGHJ1*01 S102A/S103P/S104F/H111F & L6_IGKJ1*01 S28N/S30D/S31H N53H (Fab, V domains shown)", "VH": "B1 VH", "VL": "B2 VL with N53H", "notes": "Fab with CH1 (plasmid A, His6 and Flag tags) and kappa CL (plasmid C); also called H:APFF & L:NDH N53H"}, "B5": {"name": "Fab VH1-46_IGHD6-6*01_IGHJ1*01 S102A/S103P/S104F/H111F & L6_IGKJ1*01 S28N/S30D/S31H N53E (Fab, V domains shown)", "VH": "B1 VH", "VL": "B2 VL with N53E", "notes": "Fab with CH1 (plasmid A, His6 and Flag tags) and kappa CL (plasmid C); also called H:APFF & L:NDH N53E"}, "B6": {"name": "Fab VH1-46_IGHD6-6*01_IGHJ1*01 S102A/S103P/S104F/H111F (APFF) & L6_IGKJ1*01 S28T (Fab, V domains shown)", "VH": "B1 VH", "VL": "B2 VL with N28T, D30S, H31S", "notes": "Fab made in E. coli; the variable domains were cloned into Plasmid A (CH1, His and Flag tags) and Plasmid C (kappa CL); also called APFF / S28T"}, "B7": {"name": "Fab VH1-46_IGHD6-6*01_IGHJ1*01 S102A/S103P/S104F (APF) & L6_IGKJ1*01 S92N (Fab, V domains shown)", "VH": "B1 VH with F111H", "VL": "B2 VL with N28S, D30S, H31S, S92N", "notes": "Fab with CH1 plus His6/Flag tags and kappa CL from the expression plasmids; also called APF & S92N"}, "B8": {"name": "Fab VH1-46_IGHD6-6*01_IGHJ1*01 S102A/S103P/S104F (APF) & L6_IGKJ1*01 R91Q (Fab, V domains shown)", "VH": "B1 VH with F111H", "VL": "B2 VL with N28S, D30S, H31S, R91Q", "notes": "Fab with CH1 plus His6/Flag tags and kappa CL from the expression plasmids; also called APF & R91Q"}, "B9": {"name": "Fab VH1-46_IGHD6-6*01_IGHJ1*01 S102A/S103P/S104F/H111F & L6_IGKJ1*01 S28N/S30D/S31H S52M (Fab, V domains shown)", "VH": "B1 VH", "VL": "B2 VL with S52M", "notes": "Fab with CH1 (plasmid A, His6 and Flag tags) and kappa CL (plasmid C); also called H:APFF & L:NDH S52M"}}, "key": {"[1]": {"molecular_target": "T1, Recombinant Human DLL4 (R&D Systems Cat#1506-D4/CF) (human, UniProt Q9NR61 27-524)", "T1 construct": "Bought recombinant protein; also called delta-like protein 4; rHuman DLL4", "assay": "ECL multispot (MSD) assay, antigen spotted on plate, 10 nM Fab;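 further: bound Fab detected with a TAG-labelled detection antibody (1 h, 20 °C), electrochemiluminescence read and compared with each well's blank, signal/blank of 4 or above scored as hit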"}, "[2]": {"molecular_target": "T2, rHuman P-Cadherin/Fc Chimera, CF (R&D Systems Cat#861-PC) (human, UniProt P22223 108-654)", "T2 construct": "Bought recombinant Fc chimera; Fc part of the bought chimera not given", "assay": "ECL multispot (MSD) assay, antigen spotted on plate, 10 nM Fab"}, "[3]": {"molecular_target": "T3, rHuman ErbB2/Fc Chimera, CF (R&D Systems Cat#1129-ER) (human, UniProt P04626 23-652)", "T3 construct": "Bought recombinant Fc chimera; also called human epidermal growth factor 2 receptor; Fc part of the bought chimera not given", "assay": "ECL multispot (MSD) assay, antigen spotted on plate, 10 nM Fab"}, "[4]": {"molecular_target": "T4, rHuman IGF-1 sR, CF (R&D Systems Cat#391-GR) (human, UniProt P08069 31-932)", "T4 construct": "Bought soluble receptor; also called insulin-like growth factor-1 soluble receptor", "assay": "ECL multispot (MSD) assay, antigen spotted on plate, 10 nM Fab"}, "[5]": {"molecular_target": "T5, rHuman EGF R/Fc Chimera, CF (R&D Systems Cat#344-ER) (human, UniProt P00533 25-645)", "T5 construct": "Bought recombinant Fc chimera; also called epidermal growth factor receptor; Fc part of the bought chimera not given", "assay": "ECL multispot (MSD) assay, antigen spotted on plate, 10 nM Fab"}, "[6]": {"molecular_target": "T6, rHuman HGF R/c-MET/Fc Chimera, CF (R&D Systems Cat#358-MT/CF) (human, UniProt P08581 25-932)", "T6 construct": "Bought recombinant Fc chimera; also called HGF R/Fc; hepatocyte growth factor receptor; Fc part of the bought chimera not given", "T6 sequence (P08581 25-932, change not shown)": "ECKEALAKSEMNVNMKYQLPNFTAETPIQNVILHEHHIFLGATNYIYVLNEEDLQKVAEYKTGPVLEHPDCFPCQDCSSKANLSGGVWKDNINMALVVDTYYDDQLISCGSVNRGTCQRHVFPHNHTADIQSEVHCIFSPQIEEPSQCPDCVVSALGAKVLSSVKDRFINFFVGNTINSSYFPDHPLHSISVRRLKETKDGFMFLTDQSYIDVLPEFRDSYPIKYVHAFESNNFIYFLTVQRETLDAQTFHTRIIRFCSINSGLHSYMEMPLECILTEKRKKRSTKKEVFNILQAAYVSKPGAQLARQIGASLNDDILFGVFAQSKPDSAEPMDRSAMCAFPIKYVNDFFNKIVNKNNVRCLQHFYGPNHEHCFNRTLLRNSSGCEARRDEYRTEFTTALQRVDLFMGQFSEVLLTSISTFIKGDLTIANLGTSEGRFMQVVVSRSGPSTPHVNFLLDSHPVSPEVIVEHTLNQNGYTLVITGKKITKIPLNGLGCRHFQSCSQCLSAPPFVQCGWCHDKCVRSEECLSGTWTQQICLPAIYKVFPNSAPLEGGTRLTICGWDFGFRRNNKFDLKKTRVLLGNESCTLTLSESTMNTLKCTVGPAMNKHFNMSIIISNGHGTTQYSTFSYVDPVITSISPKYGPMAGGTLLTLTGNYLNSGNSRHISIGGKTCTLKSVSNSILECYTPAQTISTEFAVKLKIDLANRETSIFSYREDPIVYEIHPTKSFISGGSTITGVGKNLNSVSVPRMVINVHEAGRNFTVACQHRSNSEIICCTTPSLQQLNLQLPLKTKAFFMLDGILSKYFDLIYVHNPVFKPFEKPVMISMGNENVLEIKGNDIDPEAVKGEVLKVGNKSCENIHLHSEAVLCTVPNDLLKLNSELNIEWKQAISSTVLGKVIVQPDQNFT", "assay": "ECL multispot (MSD) assay, antigen spotted on plate, 10 nM Fab"}, "[7]": {"molecular_target": "T7, Recombinant Human DLL4 (delta-like protein 4) (human, UniProt Q9NR61 27-529)", "T7 construct": "Bought recombinant human DLL4 (R&D Systems Cat#1506-D4/CF); also called rHuman DLL4; Delta-like 4", "assay": "96-well plate ECL binding assay, DLL4 immobilised, Fab in solution"}, "[8]": {"molecular_target": "T7, Recombinant Human DLL4 (delta-like …)", "assay": "ELISA, DLL4 coated on plate, Fab in solution, absorbance at 450 nm"}, "[9]": {"molecular_target": "T8, Recombinant Human DLL4 (R&D Systems Cat#1506-D4/CF) (human, UniProt Q9NR61 27-524)", "T8 construct": "Bought protein (R&D Systems Cat#1506-D4/CF), immobilised on the MSD plate; also called delta-like protein 4; rHuman DLL4", "assay": "ECL (MSD) multispot binding assay, DLL4 immobilised, Fab in solution"}, "[10]": {"molecular_target": "T9, rHuman ErbB2/Fc Chimera, CF (human, UniProt P04626 23-652)", "T9 construct": "Bought from R&D Systems; also called human epidermal growth factor 2 receptor; not shown: Fc of the bought chimera", "assay": "ECL Multispot (MSD) assay; antigen spotted on plate, Fab in solution;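 further: fab bound 1 h at 20 °C, detected by TAG-labelled antibody electrochemiluminescence, signal relative to each well's blank, ratio of 4 or more marks a hit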"}, "[11]": {"molecular_target": "T10, rHuman Erythropoietin R/Fc Chimera, CF (human, UniProt P19235 25-250)", "T10 construct": "Bought from R&D Systems; also called EPO R; EPO R/Fc; not shown: Fc of the bought chimera", "T10 sequence (looked up)": "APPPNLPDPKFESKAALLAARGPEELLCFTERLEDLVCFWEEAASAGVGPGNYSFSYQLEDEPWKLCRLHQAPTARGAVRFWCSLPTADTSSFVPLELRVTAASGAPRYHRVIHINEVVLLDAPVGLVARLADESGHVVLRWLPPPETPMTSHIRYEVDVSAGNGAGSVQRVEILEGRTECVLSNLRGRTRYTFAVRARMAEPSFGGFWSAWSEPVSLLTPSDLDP", "assay": "ECL Multispot (MSD) assay; antigen spotted on plate, Fab in solution"}, "[12]": {"molecular_target": "T11, rHuman IGF-1 sR, (IGF-1 sR), CF (human, UniProt P08069 31-932)", "T11 construct": "Bought from R&D Systems; also called insulin-like growth factor-1 soluble receptor", "assay": "ECL Multispot (MSD) assay; antigen spotted on plate, Fab in solution"}, "[13]": {"molecular_target": "T12, Recombinant Human DLL4 (human, UniProt Q9NR61 27-524)", "T12 construct": "Bought from R&D Systems; also called delta-like protein 4; rHuman DLL4", "assay": "ECL Multispot (MSD) assay; antigen spotted on plate, Fab in solution"}, "[14]": {"molecular_target": "T13, rHuman HGF R/c-MET/Fc Chimera, CF (human, UniProt P08581 25-932)", "T13 construct": "Bought from R&D Systems; also called HGF R/Fc; hepatocyte growth factor receptor; not shown: Fc of the bought chimera", "T13 sequence (P08581 25-932, change not shown)": "as the sequence (P08581 25-932, change not shown) above", "assay": "ECL Multispot (MSD) assay; antigen spotted on plate, Fab in solution"}, "[15]": {"molecular_target": "T14, rHuman Notch-1/Fc Chimera, CF (human, UniProt P46531 19-526)", "T14 construct": "Bought from R&D Systems; not shown: Fc of the bought chimera", "assay": "ECL Multispot (MSD) assay; antigen spotted on plate, Fab in solution"}, "[16]": {"molecular_target": "T15, rHuman CD44/Fc Chimera, CF (human, UniProt P16070 21-220)", "T15 construct": "Bought from R&D Systems; not shown: Fc of the bought chimera", "assay": "ECL Multispot (MSD) assay; antigen spotted on plate, Fab in solution"}, "[17]": {"molecular_target": "T16, rHuman EGF R/Fc Chimera, CF (human, UniProt P00533 25-645)", "T16 construct": "Bought from R&D Systems; also called epidermal growth factor receptor; not shown: Fc of the bought chimera", "assay": "ECL Multispot (MSD) assay; antigen spotted on plate, Fab in solution"}}, "note": "Substitutions are numbered along the chain they refer to. In names and notes the source's numbering stands.", "data": [{"binder": "B1", "values": [{"measurement": "ECL signal", "setting": "[1]", "result": 78400}, {"measurement": "ECL signal", "setting": "[2]", "result": 347}, {"measurement": "ECL signal", "setting": "[3]", "result": 354}, {"measurement": "ECL signal", "setting": "[4]", "result": 397}, {"measurement": "ECL signal", "setting": "[5]", "result": 383}, {"measurement": "ECL signal", "setting": "[6]", "result": 347}]}, {"binder": "B2", "values": [{"measurement": "ECL signal", "setting": "[7]", "result": 18700}, {"measurement": "ELISA (Avgerage signal-noise)", "setting": "[8]", "result": 0.165}]}, {"binder": "B3", "values": [{"measurement": "ECL signal", "setting": "[9]", "result": 704}]}, {"binder": "B4", "values": [{"measurement": "ECL signal", "setting": "[7]", "result": 20100}, {"measurement": "ELISA (Avgerage signal-noise)", "setting": "[8]", "result": 0.23}]}, {"binder": "B5", "values": [{"measurement": "ECL signal", "setting": "[7]", "result": 17600}, {"measurement": "ELISA (Avgerage signal-noise)", "setting": "[8]", "result": 0.204}]}, {"binder": "B6", "values": [{"measurement": "ECL signal", "setting": "[10]", "result": 271}, {"measurement": "ECL signal", "setting": "[11]", "result": 380}, {"measurement": "ECL signal", "setting": "[12]", "result": 355}, {"measurement": "ECL signal", "setting": "[13]", "result": 159000}, {"measurement": "ECL signal", "setting": "[14]", "result": 371}, {"measurement": "ECL signal", "setting": "[15]", "result": 249}, {"measurement": "ECL signal", "setting": "[16]", "result": 368}, {"measurement": "ECL signal", "setting": "[17]", "result": 321}]}, {"binder": "B7", "values": [{"measurement": "ECL signal", "setting": "[9]", "result": 2090}]}, {"binder": "B8", "values": [{"measurement": "ECL signal", "setting": "[9]", "result": 817}, {"measurement": "Signal/Blank", "setting": "[9]", "result": 3.1}]}, {"binder": "B9", "values": [{"measurement": "ECL signal", "setting": "[7]", "result": 19500}, {"measurement": "ELISA (Avgerage signal-noise)", "setting": "[8]", "result": 0.185}]}]}
